The text below walks through data of article PMC12669584.

This assay has as its target HIV-1 BaL envelope glycoprotein (Env) trimer on AT-2 inactivated virions (HIV-1 (BaL)). Nature of the assay: cryo-EM structure.

The substance “anti-coreceptor binding site (CoRBS) antibody 17b (full IgG)” came in with a stoichiometry N (17b Abs per Env trimer) of 3.
